Experimental data as given in patent US12202907B2, “Nucleic acids encoding and methods of producing proteins comprising antibody chains” (Innate Pharma, priority 2018, dated 2025).
“Also recorded” adds a separate entry of the source.

How the values were obtained:
[1] = biological target: T1, CD39 expressed by Ramos human lymphoma cells (Homo sapiens, UniProt P49961); experiment: Inhibition of the enzymatic activity of cellular CD39 in Ramos cells; assay type: cell-based
T1 construct: cells that endogenously express CD39 at their surface; host or cells: Ramos
T1 sequence (P49961 1-510): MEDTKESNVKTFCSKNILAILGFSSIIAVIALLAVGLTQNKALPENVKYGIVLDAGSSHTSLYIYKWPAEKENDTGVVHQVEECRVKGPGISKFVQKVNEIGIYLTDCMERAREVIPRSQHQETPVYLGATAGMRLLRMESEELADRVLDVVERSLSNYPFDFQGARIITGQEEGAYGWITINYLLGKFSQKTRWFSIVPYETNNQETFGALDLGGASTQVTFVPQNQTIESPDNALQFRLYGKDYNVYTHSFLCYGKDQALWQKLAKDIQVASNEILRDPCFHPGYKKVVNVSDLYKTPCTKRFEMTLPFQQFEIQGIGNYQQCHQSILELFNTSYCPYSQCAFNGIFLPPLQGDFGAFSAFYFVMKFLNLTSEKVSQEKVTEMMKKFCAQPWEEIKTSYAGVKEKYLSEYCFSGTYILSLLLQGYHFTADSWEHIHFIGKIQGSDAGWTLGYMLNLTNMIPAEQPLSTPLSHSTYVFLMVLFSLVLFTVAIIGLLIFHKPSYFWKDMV
Method: (§1) The inhibition of the CD39 enzymatic activity in CD39-expressing cells by antibodies was evaluated using Cell Titer GIo™ (Promega, reference G7571) that allows assessment of ATP hydrolysis through use of a reagent that generates a luminescent signal proportional to the amount of ATP present. The assay was thus designed to permit assessment of the inhibition of ATP hydrolyzed by CD39 in the cell culture supernatant. Briefly, 5×10^4 Ramos human lymphoma cells, 5×10^3 human CD39−, cynomolgus CD39—and mouse CD39− expressing CHO cells, were incubated 1 hour at 37° C. with anti-CD39 antibodies from 30 μg/ml to 5×10^−4 μg/ml. Cells were then incubated with 20 μM ATP for 1 additional hour at 37° C. Plates were centrifuged for 2 min at 400 g and 50 μl cell supernatant are transferred in a luminescence microplate (white wells). 50 μl CellTiter-Glo™ Reagent (CTG) was added to the supernatant and emitted light was quantified after a 5 min incubation in the dark using a Enspire™ luminometer. Anti-CD39 antibody efficacy was determined by comparing emitted light in presence of antibody with ATP alone (maximal light emission) and ATP together with cells (minimal light emission).

cell-membrane bound CD39 = biological target: T2, cell-membrane bound CD39 (Homo sapiens, UniProt P49961); experiment: Inhibition of the enzymatic activity of cellular CD39 (cells not specified); assay type: cell-based
T2 sequence (P49961 1-510): T1 sequence (P49961 1-510)
Method: as §1

[2] = biological target: T3, soluble recombinant human CD39 protein (Homo sapiens, UniProt P49961); experiment: Inhibition of the enzymatic activity of soluble CD39 (Cell Titer Glo, cell-free); assay type: biochemical
T3 construct: made in house; host or cells: CHO cells
T3 sequence (P49961 with tags, fused parts or gaps): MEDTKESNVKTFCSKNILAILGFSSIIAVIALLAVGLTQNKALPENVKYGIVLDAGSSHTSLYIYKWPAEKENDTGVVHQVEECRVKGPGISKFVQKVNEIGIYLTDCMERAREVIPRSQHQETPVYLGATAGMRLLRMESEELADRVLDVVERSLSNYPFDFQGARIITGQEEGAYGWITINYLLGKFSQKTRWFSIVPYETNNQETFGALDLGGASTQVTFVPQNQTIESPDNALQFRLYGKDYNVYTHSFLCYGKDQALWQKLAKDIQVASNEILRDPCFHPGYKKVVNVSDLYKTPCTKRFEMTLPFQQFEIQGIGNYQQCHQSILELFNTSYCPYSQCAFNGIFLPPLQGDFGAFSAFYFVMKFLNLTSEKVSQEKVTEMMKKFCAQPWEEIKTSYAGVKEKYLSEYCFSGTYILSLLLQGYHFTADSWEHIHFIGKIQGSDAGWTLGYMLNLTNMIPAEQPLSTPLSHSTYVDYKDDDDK
Method: The inhibition by antibodies of the enzymatic activity of soluble CD39 protein produced was evaluated using Cell Titer GIo™ (Promega, reference G7571) that allows assessment of ATP hydrolysis through use of a reagent that generates a luminescent signal proportional to the amount of ATP present. In this way, inhibition of the soluble-CD39-meidated ATP hydrolysis can be assessed. Briefly, dose ranges of anti-CD39 antibodies from 100 μg/ml to […] were incubated with 400 ng/ml of soluble recombinant human CD39 protein having the amino acid sequence described in the Methods section (SEQ ID NO: 44), for 1 h at 37° C. 20 μM ATP was added to the plates for 30 additional minutes at 37° C. before addition of CTG (Cell Titer Glo) reagent. Emitted light was quantified using an Enspire™ luminometer after a short incubation period of 5 min in the dark. Anti-CD39 antibody efficacy was determined by comparing emitted light in presence of antibody with ATP alone (maximal light emission) and ATP together with soluble CD39 protein (minimal light emission).

CD4 or CD8 T cells = experiment: T cell proliferation assay in the presence of added ATP; assay type: cell-based, human; settings: for increase in potency of anti-CD73 antibodies: CD4 T cell proliferation
Method: Peripheral blood from healthy donors was obtained from EFS, and mononuclear cells were isolated on a Ficoll™ gradient. Lymphocytes were further enriched on a 52% Percoll™ gradient by collection of the cell pellets and stained with a Cell Trace dye (Thermofisher) following the TDS provided by the manufacturer. […] to 1×10^5 of stained cells were distributed in 96 round-bottom plates, incubated for 1 hour at 37° C. with anti-huCD73 antibodies (antibody 6E1 described in WO2016/131950) and/or anti-huCD39 Abs (I-394 described herein) and activated for 3 to 5 days by addition of anti-CD3/anti-CD28-coated beads (bead:cell=1:4; Life Technologies). Inhibition of T cell proliferation was achieved by addition of ATP (200 μM). T cell proliferation and ability of Abs to block immune suppressive effect of AMP were assessed by flow cytometry by quantifying the dye dilution in the proliferating T cell subset.
Percentage of proliferating T cells vs. anti-CD73 Ab concentration is plotted in graphs using GraphPad Prism™ software.

- inhibition maximum, cellular CD39 ([1]; Ramos cells): 81.6%
- inhibition of cell-membrane bound (cellular) CD39 ATPase activity (cell-membrane bound CD39; qualitative): inhibit cell-membrane bound CD39
- inhibition maximum, soluble CD39 [2]: 74.9%
- potency ranking for inhibition of soluble CD39 ([2]; FIG. 2B, comparison of BY40, I-394, I-395, I-396): greatest potency
Substance: I-394: anti-CD39 antibody, VH SEQ ID NO: 6, VL SEQ ID NO: 7, human IgG1 Fc with L234A/L235E/G237A/A330S/P331S
- potency at blocking CD39 enzymatic activity relative to other antibodies ([1]; Ramos cells): greater potency compared to all other antibodies tested
- blocking CD39 enzymatic activity in tumor (Ramos) cells ([1]; qualitative): highly potent at blocking CD39 enzymatic activity
- potency and maximal inhibition of cellular CD39 compared to BY40 (cell-membrane bound CD39; FIG. 2A): greater potency and maximal inhibition of cellular CD39 compared to BY40
- inhibition of the enzymatic (ATPase) activity of soluble CD39 protein ([2]; qualitative): strong inhibition of the enzymatic activity of soluble CD39; also recorded: inhibits the enzymatic activity of soluble CD39 protein
- potentiation of anti-CD73 antibodies in restoring CD4 or CD8 T cell proliferation (CD4 or CD8 T cells; ATP 200 μM, combination with anti-CD73 antibody 6E1): strongly potentiation the effect of anti-CD73 antibodies in restoring CD4 or CD8 T cell proliferation
- increase in potency of anti-CD73 antibodies (CD4 or CD8 T cells; anti-CD39 at 0.01 μg/ml): approximately 1 log
- increase in potency of anti-CD73 antibodies (CD4 or CD8 T cells; anti-CD39 at 0.1 μg/ml): approximately 4 log
- enhancement of CD4 or CD8 T cell proliferation, alone without anti-CD73 (CD4 or CD8 T cells; concentrations of 0.1 μg/ml and 1 μg/ml, ATP 200 μM): remarkable enhancement of CD4 or CD8 T cell proliferation
